# Article PMC8884905, “RECON syndrome is a genome instability disorder caused by mutations in the DNA helicase RECQL1” (The Journal of Clinical Investigation, 2022)
# Residue numbers refer to the chain shown, from its start. Names and notes keep the numbering of the source.
# B1: recombinant human WT RECQL1 (enzyme, UniProt P46063 1-649, looked up)
# chain: MASVSALTEELDSITSELHAVEIQIQELTERQQELIQKKKVLTKKIKQCLEDSDAGASNEYDSSPAAWNKEDFPWSGKVKDILQNVFKLEKFRPLQLETINVTMAGKEVFLVMPTGGGKSLCYQLPALCSDGFTLVICPLISLMEDQLMVLKQLGISATMLNASSSKEHVKWVHAEMVNKNSELKLIYVTPEKIAKSKMFMSRLEKAYEARRFTRIAVDEVHCCSQWGHDFRPDYKALGILKRQFPNASLIGLTATATNHVLTDAQKILCIEKCFTFTASFNRPNLYYEVRQKPSNTEDFIEDIVKLINGRYKGQSGIIYCFSQKDSEQVTVSLQNLGIHAGAYHANLEPEDKTTVHRKWSANEIQVVVATVAFGMGIDKPDVRFVIHHSMSKSMENYYQESGRAGRDDMKADCILYYGFGDIFRISSMVVMENVGQQKLYEMVSYCQNISKCRRVLMAQHFDEVWNSEACNKMCDNCCKDSAFERKNITEYCRDLIKILKQAEELNEKLTPLKLIDSWMGKGAAKLRVAGVVAPTLPREDLEKIIAHFLIQQYLKEDYSFTAYATISYLKIGPKANLLNNEAHAITMQVTKSTQNSFRAESSQTCHSEQGDKKMEEKNSGNFQKKAANMLQQSGSKNTGAKKRKIDDA
# notes: RECQL1 (RECQL, RECQ1) DNA helicase, human, wild type; also called RECQ1; source: insect cells, purified to near homogeneity
# B2: recombinant human RECQL1-A459S (enzyme, UniProt P46063 1-649, looked up)
# chain: B1 chain with A459S
# notes: Variant found in patients (RECON syndrome); also called p.A459S mutant RECQL1; RECQL1 p.Ala459Ser; source: insect cells, purified to near homogeneity
# Experiments:
# RECQL1 WT (human) [1] = experiment: EMSA; conditions: EMSA: 20 mM Tris pH 7.4, 10 mM KCl, 5 mM MgCl2, 10% glycerol, 80 ng/ul BSA, with or without 5 mM ATPgS, 0.5 nM DNA; competition at 37 C (8 min, then 7 min with …)
# RECQL1-A459S (human) [2] = experiment: EMSA; conditions: EMSA: 20 mM Tris pH 7.4, 10 mM KCl, 5 mM MgCl2, 10% glycerol, 80 ng/ul BSA, with or without 5 mM ATPgS, 0.5 nM DNA; competition at 37 C (8 min, then 7 min with …)
# RECQL1 WT (human) [3] = experiment: EMSA; conditions: EMSA: 20 mM Tris pH 7.4, 10 mM KCl, 5 mM MgCl2, 10% glycerol, 80 ng/ul BSA, with or without 5 mM ATPgS, 0.5 nM DNA; competition at 37 C (8 min, then 7 min with …); remark: listed apart in the source
# RECQL1-A459S (human) [4] = experiment: EMSA; conditions: EMSA: 20 mM Tris pH 7.4, 10 mM KCl, 5 mM MgCl2, 10% glycerol, 80 ng/ul BSA, with or without 5 mM ATPgS, 0.5 nM DNA; competition at 37 C (8 min, then 7 min with …); remark: listed apart in the source
# [5] = biological target: the molecule itself; experiment: SEC; size exclusion chromatography of the purified recombinant protein in the absence of ATP
Molecule,Kd (RECQL1 WT (human) [1]),Kd (RECQL1-A459S (human) [2]),Kd (RECQL1 WT (human) [3]),Kd (RECQL1-A459S (human) [4]),binding result [5]
19 bp forked duplex,2.94 nM?,4.74 nM?,5.39 nM?,7.69 nM?,–
B1,–,–,–,–,binds
B2,–,–,–,–,binds
